Article PMC10827105

Key:
[1] = molecular target: CifRTR (CifR C99T/C181R) (Pseudomonas aeruginosa); assay: SEC
[2] = molecular target: CifRTR (CifR C99T/C181R) (Pseudomonas aeruginosa); assay: SEC + AUC
CifRTR [3] = molecular target: T1, CifRTR (Pseudomonas aeruginosa, UniProt A0A0H2ZCS5 1-196, C99T;C181R); assay: EMSA
CifRTR [4] = molecular target: T1, CifRTR; assay: EMSA; remark: listed apart in the source
CifRTR-C107S = CifRTR-C107S (Pseudomonas aeruginosa, UniProt A0A0H2ZCS5 1-196, C99T;C107S;C181R); assay: X-ray crystallography
CifRTR [5] = molecular target: T1, CifRTR; assay: SEC

Molecule: CifRTR (CifR C99T/C181R) (natural protein)
- stoichiometry N [1]: 2
- stoichiometry N [2]: 2

B1: cifR-prox dsDNA36 (dsDNA)
DNA 1: CCTCCATTATTTGTATCGATCACTATAAATTTACTT
DNA 2: AAGTAAATTTATAGTGATCGATACAAATAATGGAGG
- binding result (CifRTR [3]): binds

B2: cifR-prox dsDNA23 (dsDNA)
DNA 1: TATTTGTATCGATCACTATAAAT
DNA 2: ATTTATAGTGATCGATACAAATA
- binding result (CifRTR [4]): binds

B3: cifR-prox dsDNA26L (dsDNA)
DNA 1: TTATTTGTATCGATCACTATAAATTT
DNA 2: AAATTTATAGTGATCGATACAAATAA
- binding result (CifRTR-C107S): binds
- binding result (CifRTR [5]): binds
